In patent publication US20250326791A1 (published 2025) one finds Kd data, which are given here for two molecules.

Among the targets are δ opioid receptor (DOR); µ opioid receptor (MOR); κ opioid receptor (KOR).
Common to all, as to assay: protein binding radioassay

Bridges are numbered along the chain shown (N, C = ends). Where no end group is shown, it is not given here. [ ]: non-standard residue; d: D form. Some results are limits rather than exact numbers.

B1: DADLE-OL (peptide)
peptide: YASPKCFRY[dA]GF[dL]LACT
modifications: disulfide 6-16
On to B1, for which the Kd (usually a measure of binding affinity in units of concentration) with δ opioid receptor (DOR) was 64 nM; with µ opioid receptor (MOR), 3540 nM; with κ opioid receptor (KOR), above 10000 nM.

B2: DADLE-OL II (peptide)
peptide: Y[dA]GF[dL]KCFRYPNGVLACT
modifications: disulfide 7-17
notes: 18 residues
As for B2, the Kd stood at 275 nM in the test with δ opioid receptor (DOR), 123 nM in the test with µ opioid receptor (MOR) and 1080 nM with κ opioid receptor (KOR).
